Measurements: article PMC8298264, “Function of cofactor Akirin2 in the regulation of gene expression in model human neutrophil-like HL60 cells” (Bioscience Reports, 2021)

B1: sp¦Q9UKX7¦NUP50_HUMAN (protein, UniProt Q9UKX7 1-468, looked up)
Nuclear pore complex protein …: MAKRNAEKELTDRNWDQEDEAEEVGTFSMASEEVLKNRAIKKAKRRNVGFESDTGGAFKGFKGLVVPSGGGRFSGFGSGAGGKPLEGLSNGNNITSAPPFASAKAAADPKVAFGSLAANGPTTLVDKVSNPKTNGDSQQPSSSGLASSKACVGNAYHKQLAALNCSVRDWIVKHVNTNPLCDLTPIFKDYEKYLANIEQQHGNSGRNSESESNKVAAETQSPSLFGSTKLQQESTFLFHGNKTEDTPDKKMEVASEKKTDPSSLGATSASFNFGKKVDSSVLGSLSSVPLTGFSFSPGNSSLFGKDTTQSKPVSSPFPTKPLEGQAEGDSGECKGGDEEENDEPPKVVVTEVKEEDAFYSKKCKLFYKKDNEFKEKGIGTLHLKPTANQKTQLLVRADTNLGNILLNVLIPPNMPCTRTGKNNVLIVCVPNPPIDEKNATMPVTMLIRVKTSEDADELHKILLEKKDA
B2: sp¦O60925¦PFD1_HUMAN (protein, UniProt O60925 2-122, looked up)
Prefoldin subunit 1: AAPVDLELKKAFTELQAKVIDTQQKVKLADIQIEQLNRTKKHAHLTDTEIMTLVDETNMYEGVGRMFILQSKEAIHSQLLEKQKIAEEKIKELEQKKSYLERSVKEAEDNIREMLMARRAQ
B3: sp¦P55145¦MANF_HUMAN (protein, UniProt P55145 25-182, looked up)
Mesencephalic …: LRPGDCEVCISYLGRFYQDLKDRDVTFSPATIENELIKFCREARGKENRLCYYIGATDDAATKIINEVSKPLAHHIPVEKICEKLKKKDSQICELKYDKQIDLSTVDLKKLRVKELKKILDDWGETCKGCAEKSDYIRKINELMPKYAPKAASARTDL
B4: sp¦P20618¦PSB1_HUMAN (protein, UniProt P20618 29-241, looked up)
Proteasome subunit beta type-1: RFSPYVFNGGTILAIAGEDFAIVASDTRLSEGFSIHTRDSPKCYKLTDKTVIGCSGFHGDCLTLTKIIEARLKMYKHSNNKAMTTGAIAAMLSTILYSRRFFPYYVYNIIGGLDEEGKGAVYSFDPVGSYQRDSFKAGGSASAMLQPLLDNQVGFKNMQNVEHVPLSLDRAMRLVKDVFISAAERDVYTGDALRICIVTKEGIREETVSLRKD
B5: sp¦P82979¦SARNP_HUMAN (protein, UniProt P82979 2-210, looked up)
SAP domain-containing …: ATETVELHKLKLAELKQECLARGLETKGIKQDLIHRLQAYLEEHAEEEANEEDVLGDETEEEETKPIELPVKEEEPPEKTVDVAAEKKVVKITSEIPQTERMQKRAERFNVPVSLESKKAARAARFGISSVPTKGLSSDNKPMVNLDKLKERAQRFGLNVSSISRKSEDDEKLKKRKERFGIVTSSAGTGTTEDTEAKKRKRAERFGIA
B6: sp¦Q15424¦SAFB1_HUMAN (protein, UniProt Q15424 2-915, looked up)
Scaffold attachment factor B1: AETLSGLGDSGAAGAAALSSASSETGTRRLSDLRVIDLRAELRKRNVDSSGNKSVLMERLKKAIEDEGGNPDEIEITSEGNKKTSKRSSKGRKPEEEGVEDNGLEENSGDGQEDVETSLENLQDIDIMDISVLDEAEIDNGSVADCVEDDDADNLQESLSDSRELVEGEMKELPEQLQEHAIEDKETINNLDTSSSDFTILQEIEEPSLEPENEKILDILGETCKSEPVKEESSELEQPFAQDTSSVGPDRKLAEEEDLFDSAHPEEGDLDLASESTAHAQSSKADSLLAVVKREPAEQPGDGERTDCEPVGLEPAVEQSSAASELAEASSEELAEAPTEAPSPEARDSKEDGRKFDFDACNEVPPAPKESSTSEGADQKMSSPEDDSDTKRLSKEEKGRSSCGRNFWVSGLSSTTRATDLKNLFSKYGKVVGAKVVTNARSPGARCYGFVTMSTAEEATKCINHLHKTELHGKMISVEKAKNEPVGKKTSDKRDSDGKKEKSSNSDRSTNLKRDDKCDRKDDAKKGDDGSGEKSKDQDDQKPGPSERSRATKSGSRGTERTVVMDKSKGVPVISVKTSGSKERASKSQDRKSASREKRSVVSFDKVKEPRKSRDSESHSRVRERSEREQRMQAQWEREERERLEIARERLAFQRQRLERERMERERLERERMHVEHERRREQERIHREREELRRQQELRYEQERRPAVRRPYDLDRRDDAYWPEAKRAALDERYHSDFNRQDRFHDFDHRDRGRYPDHSVDRREGSRSMMGEREGQHYPERHGGPERHGRDSRDGWGGYGSDKRMSEGRGLPPPPRRDWGDHGRREDDRSWQGTADGGMMDRDHKRWQGGERSMSGHSGPGHMMNRGGMSGRGSFAPGGASRGHPIPHGGMQGGFGGQSRGSRPSDARFTRRY
B7: sp¦O75083¦WDR1_HUMAN (protein, UniProt O75083 1-606, looked up)
WD repeat-containing protein 1: MPYEIKKVFASLPQVERGVSKIIGGDPKGNNFLYTNGKCVILRNIDNPALADIYTEHAHQVVVAKYAPSGFYIASGDVSGKLRIWDTTQKEHLLKYEYQPFAGKIKDIAWTEDSKRIAVVGEGREKFGAVFLWDSGSSVGEITGHNKVINSVDIKQSRPYRLATGSDDNCAAFFEGPPFKFKFTIGDHSRFVNCVRFSPDGNRFATASADGQIYIYDGKTGEKVCALGGSKAHDGGIYAISWSPDSTHLLSASGDKTSKIWDVSVNSVVSTFPMGSTVLDQQLGCLWQKDHLLSVSLSGYINYLDRNNPSKPLHVIKGHSKSIQCLTVHKNGGKSYIYSGSHDGHINYWDSETGENDSFAGKGHTNQVSRMTVDESGQLISCSMDDTVRYTSLMLRDYSGQGVVKLDVQPKCVAVGPGGYAVVVCIGQIVLLKDQRKCFSIDNPGYEPEVVAVHPGGDTVAIGGVDGNVRLYSILGTTLKDEGKLLEAKGPVTDVAYSHDGAFLAVCDASKVVTVFSVADGYSENNVFYGHHAKIVCLAWSPDNEHFASGGMDMMVYVWTLSDPETRVKIQDAHRLHHVSSLAWLDEHTLVTTSHDASVKEWTITY
B8: sp¦P25788¦PSA3_HUMAN (protein, UniProt P25788 2-255, looked up)
Proteasome subunit alpha …: SSIGTGYDLSASTFSPDGRVFQVEYAMKAVENSSTAIGIRCKDGVVFGVEKLVLSKLYEEGSNKRLFNVDRHVGMAVAGLLADARSLADIAREEASNFRSNFGYNIPLKHLADRVAMYVHAYTLYSAVRPFGCSFMLGSYSVNDGAQLYMIDPSGVSYGYWGCAIGKARQAAKTEIEKLQMKEMTCRDIVKEVAKIIYIVHDEVKDKAFELELSWVGELTNGRHEIVPKDIREEAEKYAKESLKEEDESDDDNM
B9: sp¦P10620¦MGST1_HUMAN (protein, UniProt P10620 1-155, looked up)
Microsomal glutathione …: MVDLTQVMDDEVFMAFASYATIILSKMMLMSTATAFYRLTRKVFANPEDCVAFGKGENAKKYLRTDDRVERVRRAHLNDLENIIPFLGIGLLYSLSGPDPSTAILHFRLFVGARIYHTIAYLTPLPQPNRALSFFVGYGVTLSMAYRLLKSKLYL
B10: sp¦P28074¦PSB5_HUMAN (protein, UniProt P28074 60-263, looked up)
Proteasome subunit beta type-5: TTTLAFKFRHGVIVAADSRATAGAYIASQTVKKVIEINPYLLGTMAGGAADCSFWERLLARQCRIYELRNKERISVAAASKLLANMVYQYKGMGLSMGTMICGWDKRGPGLYYVDSEGNRISGATFSVGSGSVYAYGVMDRGYSYDLEVEQAYDLARRAIYQATYRDAYSGGAVNLYHVREDGWIRVSSDNVADLHEKYSGSTP

Test system: human HL60 cells
Assay: SWATH-MS proteomics, differential protein representation, akirin2 KO vs WT HL60 cells
Assay type: cell-based
Details: akirin2 KO vs WT HL60 cells; sheet "Over-represented in KO"
How it was run: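 Three biological replicates per genotype; 150 µg protein FASP/trypsin digested; IDA library (3 µg digest); SWATH variable windows, 5 µg/sample, 3.6 s cycle; gradient 5–30% B 120 min then 30–60% B 15 min; 1% global FDR; TAS normalization.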

Molecule	Fold Change	Log (Fold Change)
B1	1.164	0.06601
B2	1.213	0.08377
B3	1.173	0.06948
B4	1.163	0.06574
B5	1.173	0.06929
B6	1.249	0.09669
B7	1.216	0.0848
B8	1.227	0.08878
B9	1.217	0.08527
B10	1.209	0.08243
